How the values were obtained:
[1] = system: Brown Norway rats; experiment: STZ diabetic retinopathy prevention, intravitreal, ERG; assay type: in vivo, rat
[2] = system: PC-3 tumours in Balb/c nude mice; experiment: Subcutaneous PC-3 human prostate tumour; assay type: in vivo, mouse; conditions: 0.1 and 1 mg/kg/inj Q4Dx4, dose-dependent, more marked at 1 mg/kg
[3] = system: primary mouse cortical neurons; experiment: JNK activation in cortical neurons under H2O2 oxidative stress; assay type: cell-based; conditions: 5 μM pre-treatment; 1 mM H2O2 15 min
[4] = system: primary mouse cortical neurons (WT); experiment: Aβ42-induced stress/apoptosis in WT cortical neurons; assay type: cell-based
[5] = system: primary macrophages; experiment: Uptake into primary cultured macrophages (specific antibody); assay type: cell-based; conditions: Fig. 24
[6] = system: THP-1 cells; experiment: LPS-induced cytokine release; assay type: cell-based; conditions: Fig. 27 A-C
[7] = system: murine T cells; experiment: PMA & ionomycin-induced cytokine production in primary cells; assay type: cell-based, mouse; conditions: Fig. 28 D-E
[8] = Previous open-label dose-escalation trial in post-surgery/post-trauma intraocular inflammation; assay type: in vivo, human; conditions: 45, 90, 450, 900 μg subconj., 20 patients
[9] = 10 μM pre-treatment, 2 μM Aβ42 5 h (Example 49)
[10] = peptide pre-treatment 1 h (XG-102 10 μM), 2 μM Aβ42

NH2-DQSRPVQPFLNLTTPRKPRPPRRRQRRKKRG-COOH (H-DQSRPVQPFLNLTTPRKPRPPRRRQRRKKRG-OH; also: D-amino acids (positions not given here)) [XG-102]
photopic 29Hz flicker B-wave amplitude ([1]; 0.2 μg/eye, day 13): 14 μV
scotopic single flash 0dB A-wave amplitude ([1]; 0.2 μg/eye, day 13): -203 μV
scotopic single flash 0dB B-wave amplitude ([1]; 0.2 μg/eye, day 13): 442 μV
scotopic single flash -10dB A-wave amplitude ([1]; 0.2 μg/eye, day 13): -128 μV
scotopic single flash -30dB B-wave amplitude ([1]; 0.2 μg/eye, day 13): 270 μV
OP#1 scotopic single flash 0dB amplitude ([1]; 0.2 μg/eye, day 20): 36 μV
OP#2 scotopic single flash 0dB amplitude ([1]; 0.2 μg/eye, day 20): 70 μV
OP#3 scotopic single flash 0dB amplitude ([1]; 0.2 μg/eye, day 20): 164 μV
OP#4 scotopic single flash 0dB amplitude ([1]; 0.2 μg/eye, day 20): 116 μV
photopic 1Hz flicker A-wave amplitude ([1]; 0.2 μg/eye, day 20): -2 μV
photopic 1Hz flicker B-wave amplitude ([1]; 0.2 μg/eye, day 20): 70 μV
photopic 29Hz flicker B-wave amplitude ([1]; 0.2 μg/eye, day 20): 10 μV
scotopic single flash 0dB A-wave amplitude ([1]; 0.2 μg/eye, day 20): -198 μV
scotopic single flash 0dB B-wave amplitude ([1]; 0.2 μg/eye, day 20): 433 μV
scotopic single flash -10dB A-wave amplitude ([1]; 0.2 μg/eye, day 20): -129 μV
scotopic single flash -30dB B-wave amplitude ([1]; 0.2 μg/eye, day 20): 240 μV
OP#1 scotopic single flash 0dB amplitude ([1]; 2 μg/eye IVT d1,8,15, day 6): 40 μV
OP#2 scotopic single flash 0dB amplitude ([1]; 2 μg/eye, day 6): 93 μV
OP#3 scotopic single flash 0dB amplitude ([1]; 2 μg/eye, day 6): 239 μV
OP#4 scotopic single flash 0dB amplitude ([1]; 2 μg/eye, day 6): 182 μV
photopic 1Hz flicker A-wave amplitude ([1]; 2 μg/eye, day 6): -3 μV
photopic 1Hz flicker B-wave amplitude ([1]; 2 μg/eye, day 6): 69 μV
photopic 29Hz flicker B-wave amplitude ([1]; 2 μg/eye, day 6): 11 μV
scotopic single flash 0dB A-wave amplitude ([1]; 2 μg/eye, day 6): -205 μV
scotopic single flash 0dB B-wave amplitude ([1]; 2 μg/eye, day 6): 383 μV
scotopic single flash -10dB A-wave amplitude ([1]; 2 μg/eye, day 6): -124 μV
scotopic single flash -30dB B-wave amplitude ([1]; 2 μg/eye, day 6): 270 μV
OP#1 scotopic single flash 0dB amplitude ([1]; 2 μg/eye, day 13): 33 μV
OP#2 scotopic single flash 0dB amplitude ([1]; 2 μg/eye, day 13): 92 μV
OP#3 scotopic single flash 0dB amplitude ([1]; 2 μg/eye, day 13): 219 μV
OP#4 scotopic single flash 0dB amplitude ([1]; 2 μg/eye, day 13): 160 μV
photopic 1Hz flicker A-wave amplitude ([1]; 2 μg/eye, day 13): -6 μV
photopic 1Hz flicker B-wave amplitude ([1]; 2 μg/eye, day 13): 91 μV
photopic 29Hz flicker B-wave amplitude ([1]; 2 μg/eye, day 13): 17 μV
scotopic single flash 0dB A-wave amplitude ([1]; 2 μg/eye, day 13): -261 μV
scotopic single flash 0dB B-wave amplitude ([1]; 2 μg/eye, day 13): 524 μV
scotopic single flash -10dB A-wave amplitude ([1]; 2 μg/eye, day 13): -152 μV
scotopic single flash -30dB B-wave amplitude ([1]; 2 μg/eye, day 13): 292 μV
OP#1 scotopic single flash 0dB amplitude ([1]; 2 μg/eye, day 20): 26 μV
OP#2 scotopic single flash 0dB amplitude ([1]; 2 μg/eye, day 20): 49 μV
OP#3 scotopic single flash 0dB amplitude ([1]; 2 μg/eye, day 20): 137 μV
OP#4 scotopic single flash 0dB amplitude ([1]; 2 μg/eye, day 20): 130 μV
photopic 1Hz flicker A-wave amplitude ([1]; 2 μg/eye, day 20): -2 μV
photopic 1Hz flicker B-wave amplitude ([1]; 2 μg/eye, day 20): 45 μV
photopic 29Hz flicker B-wave amplitude ([1]; 2 μg/eye, day 20): 9 μV
scotopic single flash 0dB A-wave amplitude ([1]; 2 μg/eye, day 20): -147 μV
scotopic single flash 0dB B-wave amplitude ([1]; 2 μg/eye, day 20): 278 μV
scotopic single flash -10dB A-wave amplitude ([1]; 2 μg/eye, day 20): -84 μV
scotopic single flash -30dB B-wave amplitude ([1]; 2 μg/eye, day 20): 166 μV
substance-related deaths ([1]; 0.2 and 2 μg/eye IVT): XG-102 관련된 사망은 없었다
overall effect on decrease of ERG wave amplitudes ([1]; rat, in vivo): 웨이브 진폭의 감소를 역전시키는 경향이 있다
vascular leakage on fluorescein angiography ([1]; rat, in vivo): 혈관 누출을 나타내지 않았고
mean tumour volume over time [2]: 종양 부피의 감소
JNK activity (pJNK/JNK) induced by H2O2 [3]: JNK 활성을 억제하였다
JNK activity (pJNK/JNK) [4, 9]: 변화는 관찰되지 않았다
decrease of apoptosis (cleaved PARP) [4, 9]: 37%
decrease of caspase 3 activity ([4]; 10 μM, 2 μM Aβ42): 71%
decrease of cleaved PARP expression level ([4]; 10 μM, 2 μM Aβ42): 55%
decrease of cleaved caspase 3 expression level ([4]; 10 μM, 2 μM Aβ42): 93%
change of c-Jun expression vs stressed neurons without peptide [4, 10]: -65%
change of c-Jun phosphorylation vs stressed neurons without peptide [4, 10]: -74%
incorporation into primary macrophages [5]: 강하게 병합된다
LPS-induced TNFa, IL-6, MCP-1 release [6]: 사이토카인 방출을 억제한다
PMA & ionomycin-induced TNFa, IFNg production [7]: 사이토카인 방출을 억제한다
safety and tolerability [8]: 안정하고 내약성이 우수하다
